# T1: CTB5-MBP (OsHox14, HD-Zip I) (Oryza sativa (japonica; KMXBG or Towada …, UniProt Q7XI85 1-240)
# T1 sequence: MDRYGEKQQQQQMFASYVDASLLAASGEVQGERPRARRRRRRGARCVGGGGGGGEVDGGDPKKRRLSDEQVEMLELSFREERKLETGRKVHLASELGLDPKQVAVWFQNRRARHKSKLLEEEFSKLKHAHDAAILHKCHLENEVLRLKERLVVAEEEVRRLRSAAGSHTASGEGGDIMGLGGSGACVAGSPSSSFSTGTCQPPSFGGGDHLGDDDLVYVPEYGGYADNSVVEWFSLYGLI
# Target: T1, CTB5-MBP (OsHox14, HD-Zip I)
# Assay: EMSA
row,Binder,binding result
1,OsGA3ox1 promoter probe mutant (dsDNA) DNA 1: ATAGGAAAAAAAATTGGGGGGGGCTTAAATTTTTTGAA DNA 2: TTCAAAAAATTTAAGCCCCCCCCAATTTTTTTTCCTAT,no binding
2,OsGA2ox6 promoter probe WT (dsDNA) DNA 1: CGGGGATGTGCAGTTTAATTAATTTTGTATAAGATT DNA 2: AATCTTATACAAAATTAATTAAACTGCACATCCCCG,binds
3,OsGA2ox6 promoter probe mutant (dsDNA) DNA 1: CGGGGATGTGCAGTTCCCCCCATTTTGTATAAGATT DNA 2: AATCTTATACAAAATGGGGGGAACTGCACATCCCCG,no binding
4,PYL9 promoter probe WT (AH1 motif) (dsDNA) DNA 1: AAAATATATTCAATTATTGATTTGAAACTA DNA 2: TAGTTTCAAATCAATAATTGAATATATTTT,binds
5,OsGA3ox1 promoter probe WT (dsDNA) DNA 1: ATAGGAAAAAAAATTAATAATTACTTAAATTTTTTGAA DNA 2: TTCAAAAAATTTAAGTAATTATTAATTTTTTTTCCTAT,binds
